Columns and labels:
[1] = Cardiac electrophysiology (QTc); format: in vivo, human; details: at the recommended dose; large = >20 msec
[2] = Immunogenicity (anti-therapeutic antibody, ATA); format: in vivo, human; details: 365 patients tested
Description: As with all therapeutic proteins, there is a potential for immunogenicity. The detection of antibody formation is highly dependent on the sensitivity and specificity of the assay. Additionally, the observed incidence of antibody (including neutralizing antibody) positivity in an assay may be influenced by several factors including assay methodology, sample handling, timing of sample collection, concomitant medications, and underlying disease. For these reasons, comparison of the incidence of antibodies in the studies described below with the incidence of antibodies in other studies or other enfortumab vedotin products may be misleading.
A total of 365 patients were tested for immunogenicity to PADCEV; 4 patients (1%) were confirmed to be transiently positive for anti-therapeutic antibody (ATA), and 1 patient (0.3%) was confirmed to be persistently positive for ATA at any post-baseline time point. No impact of ATA on efficacy, safety and pharmacokinetics was observed.

[3] = system: locally advanced or metastatic urothelial cancer; test: EV-201 single-arm trial, efficacy (BICR, RECIST v1.1); format: in vivo, human
Procedure: The efficacy of PADCEV was evaluated in EV-201 (NCT03219333), single-arm, multicenter trial that enrolled 125 patients with locally advanced or metastatic urothelial cancer who received prior treatment with a PD-1 or PD-L1 inhibitor and platinum-based chemotherapy. Patients were excluded if they had active CNS metastases, ongoing sensory or motor neuropathy >Grade 2, or uncontrolled diabetes defined as hemoglobin A1C (HbA1c)≥8% or HbA1c≥7% with associated diabetes symptoms.
The median age was 69 years (range: 40 to 84 years), 70% were male, and 85% were Caucasian. […] Ninety percent of patients had visceral metastases including 40% with liver metastases. Two-thirds of patients had pure transitional cell carcinoma (TCC) histology; 33% had TCC with other histologic variants. An immunohistochemistry clinical trial assay was used to assess patients with tumor tissue available, and detected Nectin-4 expression in all patients tested (n=120). The median number of prior systemic therapies was 3 (range: 1 to 6). Forty-six percent of patients received prior PD-1 inhibitor, 42% received prior PD-L1 inhibitor, and an additional 13% received both PD-1 and PD-L1 inhibitors. Sixty-six percent of patients received prior cisplatin-based regimens, 26% received prior carboplatin-based regimens, and an additional 8% received both cisplatin and carboplatin-based regimens.
The major efficacy outcome measures were confirmed objective response rate (ORR) and duration of response (DOR) assessed by blinded independent central review (BICR) using RECIST v1.1.

[4] = Exposure-response analysis; format: in vivo, human
pregnant rats = test: Rat embryo-fetal development study; format: in vivo
Description: Additionally, skeletal anomalies (asymmetric, fused, incompletely ossified, and misshapen sternebrae, misshapen cervical arch, and unilateral ossification of the thoracic centra) and decreased fetal weight were observed.

rats = test: Repeat-dose toxicology studies in rats; format: in vivo, rat
[5] = Pooled safety in 310 patients (EV-201, EV-101, EV-102); format: in vivo, human
Procedure: Because clinical trials are conducted under widely varying conditions, adverse reaction rates observed in the clinical trials of a drug cannot be directly compared to rates in the clinical trials of another drug and may not reflect the rates observed in practice. The data in the WARNINGS AND PRECAUTIONS section reflect exposure to PADCEV as a single agent at 1.25 mg/kg in 310 patients in EV-201, EV-101 (NCT02091999), and EV-102 ([…]). Among 310 patients receiving PADCEV, 30% were exposed for ≥6 months and 8% were exposed for ≥12 months.

[6] = Outcome of adverse reactions under the dose modification schedule; format: in vivo, human
Description: The results based on the dose modification schedule as provided are as follows.

[7] = 310 patients in clinical trials
[8] = 310 patients in clinical trials, 1.25 mg/kg
[9] = among patients who experienced hyperglycemia
[10] = among patients who experienced it, dose modification schedule

In the case of enfortumab vedotin-ejfv [PADCEV], the QTc prolongation [1] is reported as “no large QTc prolongation”, the “impact of ATA on efficacy, safety and pharmacokinetics” value [2] is reported as “No impact” and the “patients persistently positive for ATA at any post-baseline time point” value ([2]; 1 patient) is reported as 0.3%. The “patients transiently positive for anti-therapeutic antibody (ATA)” value ([2]; 4 patients) was 1%, the “median time to response” value ([3]; EV-201) was 1.84 months and the “Median Duration of Response” value ([3]; EV-201, BICR, median follow-up 10.2 months) was 7.6 months. For the same substance, the “Complete Response Rate (CR)” value ([3]; EV-201, n = 125, BICR) was 12%, the “Partial Response Rate (PR)” value ([3]; EV-201, n = 125, BICR) was 32% and the “Confirmed ORR” value ([3]; EV-201, n = 125, BICR, 1.25 mg/kg Days 1, 8, 15 of 28-day cycle) was 44%. The “association of higher exposure” value ([4]; e.g. Grade >=2 peripheral neuropathy, Grade >=3 hyperglycemia) was “higher incidence of some adverse reactions”, the “association of lower exposure” value ([4]; exposure-response analysis) was “lower efficacy” and the “findings in pregnant rats dosed during organogenesis” value (pregnant rats; maternal exposures approximately similar to exposure at recommended human dose of 1.25 mg/kg) was “maternal toxicity, embryo-fetal lethality, structural malformations and skeletal anomalies”. The “skeletal anomalies and decreased fetal weight” value (pregnant rats; rat pilot embryo-fetal development study) was “observed”, the “exposure at 5 mg/kg relative to the recommended human dose” value (pregnant rats; rat, 5 mg/kg) was “approximately 3 times the exposure at the recommended human dose” and the “outcome at 2 mg/kg” value (pregnant rats; rat, gestation day 6 and 13, 2 mg/kg, approximately similar to exposure at recommended human dose) was “maternal toxicity, embryo-fetal lethality and structural malformations”. For the same substance, the “outcome at the maternally toxic dose of 5 mg/kg” value (pregnant rats; rat, gestation day 6 and 13, 5 mg/kg) was “complete litter loss in all pregnant rats”, the “potential indicated by repeat-dose toxicity studies in rats” value (rats) was “impair male reproductive function and fertility” and the “reversal of testes and epididymis findings by end of recovery period” value (rats; up to 13 weeks) was “did not reverse”. The “findings in testes and epididymis” value (rats; up to 13 weeks, doses >=2 mg/kg, exposures similar to recommended human dose) was “decreases in testes and epididymis weights, seminiferous tubule degeneration, spermatid/spermatocyte depletion in the testes and cell debris, sperm granuloma and hypospermia/abnormal spermatids in the epididymis”, the blurred vision ([5]; 310 patients) was 14% and the dry eye symptoms ([5]; 310 patients) was 19%. For the same substance, the “extravasation reactions with secondary cellulitis, bullae, or exfoliation” value ([5]; 310 patients) was “One”, the “median time to onset to symptomatic vision disorder” value ([5]; 310 patients) was 3.1 months and the ocular disorders ([5]; 310 patients) was 46%. For the same substance, the “skin and soft tissue reactions secondary to extravasation” value ([5]; 310 patients) was 1.3%, the “Grade 3-4 skin reactions” value [5, 7] was 10% and the maculopapular rash [5, 7] was 26%. For the same substance, the pruritus [5, 7] was 30%, the skin reactions [5, 7] was 54% and the “peripheral neuropathy Grade 3 reactions” value [5, 8] was 2%. For the same substance, the “peripheral neuropathy, predominantly sensory” value [5, 8] was 49%, the “differences in safety or effectiveness between patients 65 years or older and younger patients” value ([5]; 310 patients, 187 were 65 years or older, 80 were 75 years or older) was “No overall differences” and the “erythema, swelling, increased temperature and pain worsened until, after extravasation” value ([5]; infusion site extravasation) was 2 to 7 days. The “extravasation reactions resolved within, of peak” value ([5]; infusion site extravasation) was 1-4 weeks, the “incidence of Grade 3-4 hyperglycemia with higher body mass index and higher baseline A1C” value ([5]; patients treated with PADCEV) was “increased consistently” and the “hyperglycemia: complete resolution” value [6, 9] was 57%. The “hyperglycemia: some improvement” value [6, 9] was 14%, the “rash: complete resolution” value [6, 10] was 73% and the “rash: patients with resolution or improvement” value [6, 10] was 93%. For the same substance, the “rash: some improvement” value [6, 10] was 20%, the “peripheral neuropathy: resolution or Grade 1 after the dose modification” value ([6]; among patients who experienced peripheral neuropathy) was 76% and the “ongoing rash that was Grade 1” value ([6]; of those with ongoing rash) was 75%.

Reference: patent publication US20230025600A1, “TREATMENT OF CANCERS WITH ANTIBODY DRUG CONJUGATES (ADC) THAT BIND TO 191P4D12 PROTEINS” (AGENSYS, INC., priority 2019, published 2023)
